Assay [1] addresses polyclonal human IgG (Gammanorm, Octapharma) (human). Kind of assay: gradient elution pH 6 to pH 3, 0.1 M citrate, from ligand-coupled agarose column.
Assay [2] addresses mAb (Table 2, column 'pH mAb'). Kind of assay: gradient elution pH 6 to pH 3, 0.1 M citrate, from ligand-coupled agarose column; about 10 mg cell culture supernatant loaded.
In assay [3] the target is polyclonal human IgG (Gammanorm, Octapharma) (human). Description: breakthrough on ligand-coupled agarose column; 1 mg/ml IgG in 20 mM PBS + 0.15 M NaCl pH 7.4; residence time 6 min; ligand density 6.9 mg/ml.
For assay [4] the target is unchanged. Description: breakthrough on ligand-coupled agarose column; 1 mg/ml IgG in 20 mM PBS + 0.15 M NaCl pH 7.4; residence time 2.4 min; ligand density 6.9 mg/ml.
Assay [5] has the same target. Description: breakthrough on ligand-coupled agarose column; 1 mg/ml IgG in 20 mM PBS + 0.15 M NaCl pH 7.4; residence time 6 min; ligand density 5.3 mg/ml.
Assay [6] shares this target. Description: breakthrough on ligand-coupled agarose column; 1 mg/ml IgG in 20 mM PBS + 0.15 M NaCl pH 7.4; residence time 2.4 min; ligand density 5.3 mg/ml.
For assay [7] the target is unchanged. Kind of assay: breakthrough on ligand-coupled agarose column; 1 mg/ml IgG in 20 mM PBS + 0.15 M NaCl pH 7.4; residence time 6 min; ligand density 6.7 mg/ml.
The target is the same in assay [8]. Kind of assay: breakthrough on ligand-coupled agarose column; 1 mg/ml IgG in 20 mM PBS + 0.15 M NaCl pH 7.4; residence time 2.4 min; ligand density 6.7 mg/ml.

In assay [1], Mutant Z(H18S,N28A)4 (designed binder) returned an elution pH at peak apex, pH hIgG (first peak) of 5.68 pH and an elution pH at peak apex, pH hIgG (second peak) of 5.15 pH. Further, in assay [2], the elution pH at peak apex, pH mAb is 5.05 pH. Besides, in assay [3], the Qb10% (dynamic binding capacity at 10% breakthrough) was 45.9 mg/ml resin and the Qb80% (dynamic binding capacity at 80% breakthrough) came out at 59.1 mg/ml resin. For the same substance, in assay [4], the Qb10% (dynamic binding capacity at 10% breakthrough) came to 35.2 mg/ml resin and the Qb80% (dynamic binding capacity at 80% breakthrough) stood at 56 mg/ml resin.
Regarding Mutant Z(H18S,P57I)4 (designed binder), in assay [1], the elution pH at peak apex, pH hIgG (first peak) amounted to 5.44 pH and the elution pH at peak apex, pH hIgG (second peak) turned out to be 4.91 pH. This substance had an elution pH at peak apex, pH mAb in assay [2] of 4.71 pH. For the same substance, in assay [5], the Qb10% (dynamic binding capacity at 10% breakthrough) worked out at 47 mg/ml resin and the Qb80% (dynamic binding capacity at 80% breakthrough) stood at 58 mg/ml resin. For the same substance, in assay [6], the Qb10% (dynamic binding capacity at 10% breakthrough) turned out to be 35.6 mg/ml resin and the Qb80% (dynamic binding capacity at 80% breakthrough) amounted to 56 mg/ml resin.
“Comparative prototype Z(H18S)4 (designed binder)”: in assay [1], the elution pH at peak apex, pH hIgG (first peak) is 5.1 pH and the elution pH at peak apex, pH hIgG (second peak) stood at 4.61 pH. Moreover, in assay [7], the Qb10% (dynamic binding capacity at 10% breakthrough) is 55 mg/ml resin and the Qb80% (dynamic binding capacity at 80% breakthrough) is 67.5 mg/ml resin. Further, in assay [8], the Qb10% (dynamic binding capacity at 10% breakthrough) is 37 mg/ml resin and the Qb80% (dynamic binding capacity at 80% breakthrough) is 62.2 mg/ml resin.

The values are drawn from patent US20150080554A1.
